Measured values reported in PMC8271855.

Target: Recombinant green fluorescent protein (CopGFP, amplified from the pTurboGFP plasmid)
Assay: SEC

stoichiometry N: 2
Substance: Recombinant green fluorescent protein (CopGFP, amplified from the pTurboGFP plasmid) (natural protein)
